Source: patent WO2006085967A2 (dated 2006)

Key:
[1] = target: T1, extracellular region of human V158 FcγRIIIa with C-terminal 6x His-tag and GST-tag (human, UniProt P08637 17-208); experiment: only one value in the row
T1 construct: extracellular domain; on glutathione acceptor beads (AlphaScreen) or immobilized on the SPR chip; also called Val158 FcγRIIIa; V158 FcγRllla; not shown: 6x His-tag; GST-tag

[2] = target: T1, extracellular region of human V158 …; experiment: SPR; receptor immobilized, antibody flowed
[3] = target: T1, extracellular region of human V158 …; experiment: SPR; fold affinity vs WT
[4] = target: T1, extracellular region of human V158 …; experiment: AlphaScreen competition; fold affinity vs WT
[5] = target: T1, extracellular region of human V158 …; experiment: SPR; fold affinity vs WT (read as two values, 1 and 1.86; could be 11.86)
[6] = target: T1, extracellular region of human V158 …; experiment: AlphaScreen competition; fold affinity vs WT (read as two values, 1 and 1.86; could be 11.86)

B1: E283H alemtuzumab (antibody)
chain 1: not shown
chain 2: not shown
[1]
  Fold WT (AlphaScreen or SPR): 2.31 fold

B2: V284E alemtuzumab (antibody)
chain 1: not shown
chain 2: not shown
[1]
  Fold WT (AlphaScreen or SPR): 1.51 fold

B3: S304T alemtuzumab (antibody)
chain 1: not shown
chain 2: not shown
[1]
  Fold WT (AlphaScreen or SPR): 12.8 fold

B4: WT alemtuzumab (antibody)
chain 1: not shown
chain 2: not shown
[2]
  Kd: 68 nM

B5: E258Y alemtuzumab (antibody)
chain 1: not shown
chain 2: not shown
[3]
  Fold WT (SPR): 1.77 fold
[4]
  Fold WT (AlphaScreen): 0.64 fold

B6: T260H alemtuzumab (antibody)
chain 1: not shown
chain 2: not shown
[5]
  Fold WT (SPR): 1.86 fold
[6]
  Fold WT (AlphaScreen): 1 fold

B7: E272R alemtuzumab (antibody)
chain 1: not shown
chain 2: not shown
[1]
  Fold WT (AlphaScreen or SPR): 1.38 fold
